Assay [1] concerns rodent GSK3β homologs. Conditions: cited from earlier work.
Assay [2] has as its system grafted NURR1:GFP sorted mDAs. Kind of assay: Transplantation of NURR1:GFP sorted mDAs to immuno-deficient mice. It is filed as in vivo, mouse. An excerpt:
(§1) These sorted cells were transplanted to immuno-deficient mice.

Assay [3] has as its system MEL1 hPSC derived CD49e weak mDAs. Description: mRNA expression in CD49e sorted cells (WNT-Boost vs WNT-boost+FGF18). The conditions noted are these: WNT-boost+FGF18 (day 12-day 16) vs WNT-Boost. It is filed as cell-based, human. The protocol:
CD49e marker was tested in another hPSC line MEL1 for purifying midbrain DA neuron. Substantially pure mDA morphology was discovered in cells sorted with CD49e (Negative and/or weak expression) on day 25 of differentiation and continuously cultured for another 15 days (day 40 of differentiation) under the WNT-boost protocol and the WNT-boost+FGF18 (day 12-day 16) protocol (see FIGS. 19-20). These sorted mDAs had high TH immune-staining (see FIG. 21).

Assay [4] concerns NURR1:GFP hPSC derived mDAs. Description: mRNA expression in NURR1:GFP sorted mDAs (WNT-Boost vs WNT-Boost+FGF18). The conditions noted are these: WNT-Boost+FGF18 (day 12-day 16) vs WNT-Boost. It is filed as cell-based, human. Here is the method: NURR1:GFP hPSCs were then cultured under WNT-Boost and WNT-boost+FGF18 (day 12-day 16) protocols. NURR1:GFP positive cells were isolated on day 25 of differentiation followed by continuous culturing until day 40. On day 40 of differentiation, these midbrain DA neurons expressed high TH along with FOXA2 (see FIG. 12).
as §1

Assay [5] has as its system stem-cell-derived midbrain DA neurons and precursors. Description: Marker expression in stem-cell-derived mDA differentiation under Wnt-Boost protocol with added FGF. It is filed as cell-based, human. An excerpt: Midbrain DA neurons and precursors thereof were derived from stem cells under a Wnt-Boost protocol previously disclosed (the “7.5 M bump protocol (modification of GMP V2B)” protocol disclosed in International Publication No. WO 2016/196661, which is incorporated by reference in its entirety), which is referred to as “Wnt-Boost protocol” or “Boost protocol” hereinafter. It was discovered that EN1 expression was decreased starting from day 11 of the differentiation with Wnt-Boost protocol (see FIG. 1). Maintaining EN1 expression in the differentiated cells is important to generate mature and functional midbrain DA neurons. Thus, to maintain EN1 expression, the present example tested adding FGF8b treatment to the Wnt-Boost protocol at a late time of differentiation (see FIG. 2). Cells were contacted with FGF8b from day 9 to day 16, from day 10 to day 16, from day 11 to day 16, from day 12 to day 16, from day 13 to day 16, from day 14 to day 16, or from day 15 to day 16, in addition to the Wnt-Boost protocol, were tested. […] EN1 positive cells also expressed FOXA2 and LMX1A. […] SIX1 immuno-staining of the cells on day 30 of differentiation confirmed the mRNA results (see FIG. 5).
FGF8b, FGF17, and FGF18 were tested by being added them to the cell culture from day 12 to day 16 at a concentration of 100 ng/ml under the WNT-Boost protocol.

Assay [6] relates to grafted differentiated cells in mouse. Description: In vivo graft of differentiated cells (WNT-boost vs WNT-boost+FGF18) into intact mouse. An excerpt: The in vivo survival of differentiated cells generated from WNT-boost+FGF18 protocol was examined. Cells generated from WNT-boost and WNT-boost+FGF18 protocols were grafted into intact mouse […].

Take `Cc1c[nH]c(-c2cnc(NCCNc3ccc(C#N)cn3)nc2-c2ccc(Cl)cc2Cl)n1` [CHIR99021, 6-(2-(4-(2,4-dichlorophenyl)-5-(4-methyl-1H-imidazol-2-yl)pyrimidin-2-ylamino)ethylamino)nicotinonitrile]: the “IC50 values against rodent GSK3β homologs” value in assay [1] is “nanomolar”.

B1: FGF18: FGF activator; member of the FGF8 subfamily of secreted signaling proteins (protein, UniProt O76093 28-207, looked up)
Fibroblast growth factor 18: EENVDFRIHVENQTRARDDVSRKQLRLYQLYSRTSGKHIQVLGRRISARGEDGDKYAQLLVETDTFGSQVRIKGKETEFYLCMNRKGKLVGKPDGTSKECVFIEKVLENNYTALMSAKYSGWYVGFTKKGRPRKGPKTRENQQDVHFMKRYPKGQPELQKPFKYTTVTKRSRRIRPTHPA
With B1, the “neurite outgrowth from grafted region” value in assay [2] (FGF18 treated cells (WNT-Boost+FGF18 protocol) vs WNT-Boost) is given as “better neurite outgrowth from grafted region”. Moreover, the “cell survival of graft” value in assay [2] (sorted mDAs from WNT-Boost+FGF18 (day 12-day 16) protocol) is listed as “excellent cell survival”. Also, the “mRNA expression level of EN1” value in assay [3] and in assay [4] was “higher expression level of EN1” in each case. Moreover, in assay [3], the “mRNA expression level of PITX2” value is “lower expression level of PITX2”. The “mRNA expression level of SMA” value in assay [5] (day 16 of differentiation, 100 ng/ml from day 12 to day 16, compared with FGF8b) is listed as “reduced mRNA expression level of SMA”. Also, in assay [5] (day 16 of differentiation, FGF added from day 9-15 to day 16 to Wnt-Boost protocol), the “EN1 protein expression (immunostaining)” value is listed as “highly maintained in a FGF18 contacting duration dependent manner”. Moreover, the “EN1 expression at the mature stage of differentiation” value in assay [5] (day 27 and day 40 (FIG. 8)) was “still highly maintained”. For the same molecule, the “expression levels of SMA1 and SIX1” value in assay [5] (mature stage, FGF18 vs FGF8b treated cells) is “less expression levels of SMA1 and SIX1 than FGF8b treated cells”. In assay [5] (mature stage, compared to cells differentiated by the WNT-Boost protocol), the “expression level of PITX2” value is given as “reduced expression level of PITX2”. Also, the “striatal innervation with fibers” value in assay [6] (1 month post grafting, WNT-boost+FGF18 vs WNT-boost) is “better striatal innervation”. Further, the “maintenance of EN1 expression in vivo” value in assay [6] (cells from WNT-boost+FGF18 protocol vs WNT-boost protocol, grafted) is listed as “improved maintenance of EN1 expression in vivo”.

The values are drawn from patent US20220177835A1, “METHODS OF GENERATING AND ISOLATING MIDBRAIN DOPAMINE NEURONS” (MEMORIAL SLOAN-KETTERING CANCER CENTER, priority 2019, published 2022).
